The supplement of paper PMC7125110
± gives the standard error. This sample holds only a part of the variants without activity.

B1: glmS ribozyme (parent)
chain: AUAAAAGCGCCAGAACUACAGAAAUGUAGUUGACGAGGAGGAGGUUUAUCGAAUUUUCGGCGGAUGCCUCCAAA

Tests used:
Details in all cases: with glucosamine-6-phosphate
[1] = variants of: B1; assay: self-cleavage kobs at 640 uM GlcN6P; higher = faster cleavage; RNA array
In short: (§1)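 kcat and KM were obtained from weighted Michaelis–Menten fits across concentrations of kobs values. Those came from one- or two-exponential decay fits to per-tile medians normalised to baseline and to non-cleaving reference variants. The variants were barcoded ribozymes transcribed in situ by E. coli RNA polymerase on sequenced MiSeq chips and tracked through a hybridised Cy3 probe at 37 °C, with 40 μM to 10 mM glucosamine-6-phosphate in HEPES/KCl/Mg(OAc)2 buffer flowed in.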

[2] = variants of: B1; assay: self-cleavage kobs at 2500 uM GlcN6P; higher = faster cleavage; RNA array
In short: as §1

[3] = variants of: B1; assay: self-cleavage kobs at 10000 uM GlcN6P; higher = faster cleavage; RNA array
In short: as §1

Variant: A12G U47A G62U C67G C68G
- self-cleavage kobs at 640 uM GlcN6P [1]: 0.000122 ± 3.6e-05 s⁻¹

Variant: G13A C50G U55A C67U
- self-cleavage kobs at 640 uM GlcN6P [1]: 0.000168 ± 8.1e-05 s⁻¹
- self-cleavage kobs at 2500 uM GlcN6P [2]: 7.15e-05 ± 2.6e-05 s⁻¹

Variant: A14C G40C G41C G44C
- self-cleavage kobs at 640 uM GlcN6P [1]: < 1e-05 s⁻¹
- self-cleavage kobs at 2500 uM GlcN6P [2]: < 1e-05 s⁻¹

Variant: A14C U45A U56C
- self-cleavage kobs at 640 uM GlcN6P [1]: 8.23e-05 ± 3.9e-05 s⁻¹
- self-cleavage kobs at 2500 uM GlcN6P [2]: 0.000421 ± 0.00012 s⁻¹

Variant: C11G A12C C34G A53G U54C
- self-cleavage kobs at 640 uM GlcN6P [1]: < 1e-05 s⁻¹
- self-cleavage kobs at 2500 uM GlcN6P [2]: < 1e-05 s⁻¹

Variant: C10G C11A C58A G66U
- self-cleavage kobs at 640 uM GlcN6P [1]: < 1e-05 s⁻¹

Variant: A12U G44U U45C C70G
- self-cleavage kobs at 640 uM GlcN6P [1]: < 1e-05 s⁻¹

Variant: C11U C16U U45A
- self-cleavage kobs at 640 uM GlcN6P [1]: 0.000806 ± 0.00021 s⁻¹
- self-cleavage kobs at 2500 uM GlcN6P [2]: 0.00127 ± 0.00037 s⁻¹

Variant: A12U A53G U56C
- self-cleavage kobs at 640 uM GlcN6P [1]: 0.00708 ± 0.0025 s⁻¹
- self-cleavage kobs at 2500 uM GlcN6P [2]: 0.0149 ± 0.0066 s⁻¹

Variant: C10A U49C
- self-cleavage kobs at 640 uM GlcN6P [1]: < 1e-05 s⁻¹

Variant: A14C C16U A36G
- self-cleavage kobs at 640 uM GlcN6P [1]: < 1e-05 s⁻¹

Variant: C11A A36G C50A A64C C68A
- self-cleavage kobs at 640 uM GlcN6P [1]: < 1e-05 s⁻¹

Variant: C10G A48U A52U
- self-cleavage kobs at 640 uM GlcN6P [1]: < 1e-05 s⁻¹

Variant: A12U C16A A53C
- self-cleavage kobs at 640 uM GlcN6P [1]: 0.000148 ± 3.3e-05 s⁻¹
- self-cleavage kobs at 2500 uM GlcN6P [2]: 0.000358 ± 7.9e-05 s⁻¹

Variant: C10G A15C C50A
- self-cleavage kobs at 640 uM GlcN6P [1]: < 1e-05 s⁻¹

Variant: C11U G43A U46A U55G U65G G66A
- self-cleavage kobs at 640 uM GlcN6P [1]: < 1e-05 s⁻¹
- self-cleavage kobs at 2500 uM GlcN6P [2]: < 1e-05 s⁻¹

Variant: A12U C16U G43U
- self-cleavage kobs at 640 uM GlcN6P [1]: 4.04e-05 ± 1.7e-05 s⁻¹
- self-cleavage kobs at 2500 uM GlcN6P [2]: 7.33e-05 ± 1.4e-05 s⁻¹

Variant: C11U G13C G37C
- self-cleavage kobs at 640 uM GlcN6P [1]: < 1e-05 s⁻¹
- self-cleavage kobs at 2500 uM GlcN6P [2]: < 1e-05 s⁻¹
- self-cleavage kobs at 10000 uM GlcN6P [3]: < 1e-05 s⁻¹

Variant: C10G U47A A53U G60U
- self-cleavage kobs at 640 uM GlcN6P [1]: < 1e-05 s⁻¹

Variant: C11A A12C A42C
- self-cleavage kobs at 640 uM GlcN6P [1]: < 1e-05 s⁻¹
- self-cleavage kobs at 2500 uM GlcN6P [2]: < 1e-05 s⁻¹

Variant: C11U C68G
- self-cleavage kobs at 640 uM GlcN6P [1]: 0.000314 ± 0.00012 s⁻¹

Variant: C11G A12U A42G
- self-cleavage kobs at 640 uM GlcN6P [1]: < 1e-05 s⁻¹
- self-cleavage kobs at 2500 uM GlcN6P [2]: < 1e-05 s⁻¹

Variant: A12U A14C G29C
- self-cleavage kobs at 640 uM GlcN6P [1]: 4.97e-05 ± 2e-05 s⁻¹
- self-cleavage kobs at 2500 uM GlcN6P [2]: 0.000232 ± 7.7e-05 s⁻¹

Variant: C10U G44U U54G U55C
- self-cleavage kobs at 640 uM GlcN6P [1]: < 1e-05 s⁻¹
- self-cleavage kobs at 2500 uM GlcN6P [2]: < 1e-05 s⁻¹

Variant: C11G A33U C58U
- self-cleavage kobs at 640 uM GlcN6P [1]: < 1e-05 s⁻¹

Variant: A12G G26U G41U U47C C70G
- self-cleavage kobs at 640 uM GlcN6P [1]: 0.000117 ± 5.2e-05 s⁻¹

Variant: C11A A53U U69C C71U
- self-cleavage kobs at 640 uM GlcN6P [1]: 0.000106 ± 4.9e-05 s⁻¹
- self-cleavage kobs at 2500 uM GlcN6P [2]: 5.97e-05 ± 2.3e-05 s⁻¹

Variant: A12C C70G C71G
- self-cleavage kobs at 640 uM GlcN6P [1]: 5.18e-05 ± 2.5e-05 s⁻¹
- self-cleavage kobs at 2500 uM GlcN6P [2]: 4.37e-05 ± 1.9e-05 s⁻¹

Variant: A12C G29C G37A U55A
- self-cleavage kobs at 640 uM GlcN6P [1]: 4.45e-05 ± 1.9e-05 s⁻¹

Variant: C11U C58A G62U
- self-cleavage kobs at 640 uM GlcN6P [1]: < 1e-05 s⁻¹

Variant: G13C G51A U69G
- self-cleavage kobs at 640 uM GlcN6P [1]: 4.99e-05 ± 1.8e-05 s⁻¹

Variant: G13A A52C G63U
- self-cleavage kobs at 640 uM GlcN6P [1]: < 1e-05 s⁻¹

Variant: C10U C34G U46A A48U U69A
- self-cleavage kobs at 640 uM GlcN6P [1]: < 1e-05 s⁻¹
- self-cleavage kobs at 2500 uM GlcN6P [2]: < 1e-05 s⁻¹
- self-cleavage kobs at 10000 uM GlcN6P [3]: < 1e-05 s⁻¹

Variant: C10U G41C G44U U55C C58U
- self-cleavage kobs at 640 uM GlcN6P [1]: < 1e-05 s⁻¹
